Key:
[1] = molecular target: T1, human CD8 alpha (CD8A) on primary human CD8+ T cells (human, UniProt P01732 22-235); assay: flow cytometry, human CD8+ T cells
T1 construct: whole, on cells; also called hCD8A

human CD8A-Fc (in house) = molecular target: T2, human CD8A-Fc (in house) (human, UniProt P01732 22-182, limits assumed); assay: SPR (ProteOn), captured hCD8A-Fc
T2 construct: captured by goat anti-human Fc on the ProteOn chip; also called hCD8A-Fc; recombinant human CD8 alpha; not shown: linker/tag and Fc of human IgG1
T2 sequence (P01732 22-182 limits assumed): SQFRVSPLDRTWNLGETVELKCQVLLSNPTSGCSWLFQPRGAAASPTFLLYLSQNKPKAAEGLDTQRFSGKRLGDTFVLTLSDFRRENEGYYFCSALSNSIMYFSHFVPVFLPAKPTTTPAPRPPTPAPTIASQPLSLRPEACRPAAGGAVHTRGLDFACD

[2] = molecular target: T3, cynomolgus monkey CD8 alpha on primary cynomolgus CD8+ T cells (cynomolgus monkey, UniProt P01732 23-235 (human entry)); assay: flow cytometry, cyno CD8+ T cells
T3 construct: also called Cyno CD8alpha; cyno CD8A
T3 sequence (P01732 other isoform, or with tags, fused parts or gaps limits assumed): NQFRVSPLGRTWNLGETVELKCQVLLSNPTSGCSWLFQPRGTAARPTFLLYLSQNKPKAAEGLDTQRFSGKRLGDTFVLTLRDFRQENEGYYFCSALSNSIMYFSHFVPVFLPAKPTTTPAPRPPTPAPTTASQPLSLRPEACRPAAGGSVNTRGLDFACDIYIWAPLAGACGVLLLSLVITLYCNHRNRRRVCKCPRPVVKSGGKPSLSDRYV

T1 sequence (P01732 22-235): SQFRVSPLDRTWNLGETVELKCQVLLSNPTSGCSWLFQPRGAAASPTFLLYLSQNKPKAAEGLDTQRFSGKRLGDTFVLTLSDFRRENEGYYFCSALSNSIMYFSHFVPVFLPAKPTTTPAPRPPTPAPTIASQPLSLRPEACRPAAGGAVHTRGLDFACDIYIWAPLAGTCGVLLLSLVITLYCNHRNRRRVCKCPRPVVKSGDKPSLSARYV

Row | Binder | Human T-cell Binding 0.2 uM (MFI) [1] [MFI] | Human T-cell Binding 2 uM (MFI) [1] [MFI] | koff (human CD8A-Fc (in house)) [s⁻¹] | Cyno T-cell Binding 0.2 uM (MFI) [2] [MFI] | Cyno T-cell Binding 2 uM (MFI) [2] [MFI]
1 | P283GR7P1367_B4 (designed binder, FN3 domain) LPAPKNLVVSRVTEDSARLSWTAPDAAFDSFSILYYELPPSGEAIVLTVPGSERSYDLTGLKPGTEYTVSIFGVKGGDNSFPLSAIFTT | 446 | 8300 | 0.00518 | 367 | 396
2 | P283FR9P1366_H5 (designed binder, FN3 domain) LPAPKNLVVSRVTEDSARLSWTAPDAAFDSFIYIENKVNGEAIVLTVPGSERSYDLTGLKPGTEYHVTIGGVKGGTESNTLSAIFTT | 252 | 3140 | 0.00318 | 477 | 5090
3 | P283GR7P1367_G8 (designed binder, FN3 domain) LPAPKNLVVSRVTEDSARLSWTAPDAAFDSFYIAYPEYVWGGEATSLGEAIVLTVPGSERSYDLTGLKPGTEYFVVITGVKGGLGSYPLSAIFTT | 450 | 1460 | 0.00385 | 1420 | 21000
4 | P283HR7P1368_D4 (designed binder, FN3 domain) LPAPKNLVVSRVTEDSARLSWTAPDAAFDSFAIWCVEPIPEGEAIPLFVPGSERSYDLTGLKPGTEYRVGIRGVKGGTFSSPLAAPFTT | 6850 | 29000 | 0.000235 | 23500 | 53000
5 | P283ER9P1365_E2 (designed binder, FN3 domain) LPAPKNLVVSRVTEDSARLSWTAPDAAFDSFYIPYRESEFRGEAIALPVPGSERSYDLTGLKPGTKYRVIIIGVKGGEFSQPLAAIFTT | 2870 | 20000 | 0.000311 | 1900 | 17200
6 | P283GR7P1367_B9 (designed binder, FN3 domain) LPAPKNLVVSRVTEDSARLSWTAPDAAFDSFEIWYHEYHPRGEAIVLTVPSSERSYDLTGLKPGTEYDVVISGVKGGHWSYPLSAIFTT | 1090 | 11200 | 0.00116 | 442 | 2920
7 | P283GR7P1367_E5 (designed binder, FN3 domain) LPAPKNLVVSRVTEDSARLSWTAPDAAFDSFEIWYHEYHPRGEAIVLTVPGSERSYDLTGLKPGTEYDVVISGVKGGHWSYPLSAIFTT | 1330 | 10000 | 0.00124 | 533 | 3190
8 | P283GR7P1367_C9 (designed binder, FN3 domain) LPAPKNLVVSRVTEDSARLSWTAPDAAFDSFLIGYPEWPLGGEAIVLTVPGSERSYDLTGLKPGTEYWVIIYGVKGGEYSDPLSAIFTT | 896 | 11000 | 0.00221 | 5550 | 67000
9 | P283GR7P1367_H9 (designed binder, FN3 domain) LPAPKNLVVSRVTEDSARLSWTAPDAAFDSFDIAYPEWPTDGEAIVLTVPGSERSYDLTGLKPGTEYFVVIYGVKGGGRSAPLSAIFTT | 434 | 1710 | 0.00147 | 918 | 6120
10 | P283GR7P1367_H2 (designed binder, FN3 domain) LPAPKNLVVSRVTEDSARLSWTAPDAAFDSFDIAYPEWPTDGEAIVLTVPGSERSYDLTGLKPGTEYFVVIYGVKGGGRSYPLSAIFTT | 390 | 1620 | 0.00235 | 864 | 4210
11 | P283GR7P1367_F5 (designed binder, FN3 domain) LPAPKNLVVSRVTEDSARLSWTAPDAAFDSFDIAYPEWPTDGEAIVLTVPGSERSYDLTGLKPGTEYFVIIYGVKGGALSRPLSAIFTT | 601 | 4560 | 0.00108 | 2050 | 29000
12 | P283HR7P1368_D1 (designed binder, FN3 domain) LPAPKNLVVSRVTEDSARLSWTAPDAAFDSFGISYYEWAPNGEAIQLSVPGSERSYDLTGLKPGTEYHVVIIGVKGGEPSHPLGAPFTT | 2310 | 14100 | 0.00166 | 1410 | 7850
13 | P283HR7P1368_B12 (designed binder, FN3 domain) LPAPKNLVVSRVTEDSARLSWTAPDAAFDSFGIGYVEFTRAGEAISLSVPGSERSYDLTGLKPGTEYHVVIIGVKGGEPSHPLGAPFTT | 1540 | 13400 | 4.53e-05 | 826 | 18600
14 | P283HR7P1368_H1 (designed binder, FN3 domain) LPAPKNLVVSRVTEDSARLSWTAPDAAFDSFGIAYIETARWGEAISLTVPGSERSYDLTGLKPGTEYNVVIIGVKGGTPSHPLGAPFTT | 2460 | 15400 | 0.000552 | 1970 | 17300
15 | P283ER9P1365_G3 (designed binder, FN3 domain) LPAPKNLVVSRVTEDSARLSWTAPDAAFDSFGISYYEWAPNGEAIQLSVPGSERSYDLTGLKPGTEYHVVIIGVKGGEPSHPLGAIFTT | 2920 | 12500 | 0.0025 | 1470 | 3480
16 | P283HR7P1368_A10 (designed binder, FN3 domain) LPAPKNLVVSRVTEDSARLSWTAPDAAFDSFWIFYLEPFPRGEAIPLEVPGSERSYDLTGLKPGTEYSVDIRGVKGGDHSDPLWAYFTT | 3230 | 13600 | 0.000513 | 4770 | 42300
17 | P283GR7P1367_H8 (designed binder, FN3 domain) LPAPKNLVVSRVTEDSARLSWTAPDAAFDSFSINYWEEDPAGEAIVLTVPGSERSYDLTGLKPGTEYRVLIGGVKGGHGSLPLSAIFTT | 303 | 5270 | 0.00974 | 930 | 20900
18 | P283HR7P1368_G11 (designed binder, FN3 domain) LPAPKNLVVSRVTEDSARLSWTAPDAAFDSFGIGYAEPAVTGEAISLSVPGSERSYDLTGLKPGTEYWVVIIGVKGGINSYPLGASFTT | 2650 | 19300 | 0.000373 | 1340 | 14900
19 | P283HR7P1368_D2 (designed binder, FN3 domain) LPAPKNLVVSRVTEDSARLSWTAPDAAFNSFGIGYAEPAVTGEAISLSVPGSERSYDLTGLKPGTEYWVVIIGVKGGINSYPLGASFTT | 1910 | 15200 | 0.0013 | 950 | 11100
20 | P283ER9P1365_B6 (designed binder, FN3 domain) LPAPKNLVVSRVTEDSARLSWTAPDAAFDSFGIGYAEPVVTGEAISLSVPGSERSYDLTGLKPGTEYWVVIIGVKGGINSYPLGAIFTT | 3400 | 23000 | 0.000288 | 2690 | 30100
21 | P283HR7P1368_C3 (designed binder, FN3 domain) LPAPKNLVVSRVTEDSARLSWTAPDAAFDSFGIGYAEPAVTGEAISLSVPGSKRSYDLTGLKPGTEYWVVIIGVKGGINSYPLGASFTT | 2220 | 12700 | 0.000349 | 1310 | 13300
